Reference: US20080118978A1 (published 2008)
Residue numbers refer to the chain shown, from its start. One block for each binder: values may come before it.

Experiments:
CD10 [1] = target: T1, CD10 (human, UniProt P08473 2-750); test: flow cytometry on Raji and RTX/Raji cells, FITC anti-mouse IgG secondary
T1 construct: Endogenous CD10 of human cell lines: on Raji, RTX/Raji and Ramos cells in flow cytometry; In the ELISA it was a Triton X-100-dissolved membrane fraction of SBC-3 cells coated on the plate; also called CALLA; neutral endopeptidase
Description: The supernatant liquid was removed, cell pellets were loosened and 10 μL of FcR blocking reagent (manufactured by Miltenyi Biotec) was added thereto. After the mixture was allowed to stand on ice for about 30 minutes, an FACS buffer was added thereto and washed by centrifugal separation (about 5000×g for 1 minutes at 4° C.) was repeated three times. An FACS buffer was added so as to give a cell density of 2×10⁷ cells/ml for suspension and each 50 μL thereof was aliquated into a tube. The FACS buffer (50 μL) was added to each tube to suspend and the primary antibody solution was added thereto in an amount of 2.5 μL per tube. With regard to the primary antibody solution, each of mouse anti-CD10 antibody NL-1 [Proc. Natl. Acad. Sci. USA, 79, 4386 (1982)], anti-CD20 antibody B1 (manufactured by Beckman Coulter), FITC-labeled anti-CD19 antibody J4.119 (manufactured by Beckman Coulter) and FITC-labeled anti-CD22 antibody SJ.10.1H11 (manufactured by Beckman Coulter) was used. […] It was filtered by a Nylon mesh and transferred to a test tube to prepare a sample to be measured. Expression of CD antigen on the cell surface was measured using a flow cytometer Epics Elite (manufactured by Beckman Coulter).

CD10 [2] = target: T1, CD10; test: ELISA on plate-coated membrane fraction of CD10-expressing SBC-3 cells
Description: As to an antigen, a membrane fraction prepared from human lung small-cell tumor cell line SBC-3 cells (JCRB 0818) which highly express CD10 was used. The membrane fraction was suspended in 20 mM HEPES (pH 7.4) buffer containing 1 mM EDTA and 250 mM sucrose and cells were crushed using a homogenizer, then centrifugal separation was carried out at a low speed of 8,000×g so that granules in the cells and uncrushed cells were precipitated and removed and a centrifugal separation was carried out at a high speed of 80,000×g to separate the desired cell membrane. The separated membrane fraction was dissolved in PBS containing 0.1% of Triton-X 100 whereby protein was quantified, then made 10 μg/mL, dispensed at 50 μL/well into a 96-well plate for ELISA (manufactured by Gliner) and allowed to stand at 4° C. for one night for adsorption. After washing with PBS, 1% BSA-PBS was added in an amount of 100 μL/well and the reaction was carried out at room temperature for 1 hour to block the remaining active groups were blocked. […] After the reaction, each well was washed with Tween-PBS, a peroxidase-labeled goat anti-human IgG (H&L) antibody solution diluted 2,000-fold with 1% BSA-PBS was added as a secondary antibody solution in an amount of 50 μL/well and reaction was carried out at room temperature for 1 hour. After the reaction, washing was carried out with Tween-PBS, an ABTS substrate solution was added in an amount of 50 μL/well to develop color and OD415 was measured.

T1 sequence (P08473 2-750 limits assumed): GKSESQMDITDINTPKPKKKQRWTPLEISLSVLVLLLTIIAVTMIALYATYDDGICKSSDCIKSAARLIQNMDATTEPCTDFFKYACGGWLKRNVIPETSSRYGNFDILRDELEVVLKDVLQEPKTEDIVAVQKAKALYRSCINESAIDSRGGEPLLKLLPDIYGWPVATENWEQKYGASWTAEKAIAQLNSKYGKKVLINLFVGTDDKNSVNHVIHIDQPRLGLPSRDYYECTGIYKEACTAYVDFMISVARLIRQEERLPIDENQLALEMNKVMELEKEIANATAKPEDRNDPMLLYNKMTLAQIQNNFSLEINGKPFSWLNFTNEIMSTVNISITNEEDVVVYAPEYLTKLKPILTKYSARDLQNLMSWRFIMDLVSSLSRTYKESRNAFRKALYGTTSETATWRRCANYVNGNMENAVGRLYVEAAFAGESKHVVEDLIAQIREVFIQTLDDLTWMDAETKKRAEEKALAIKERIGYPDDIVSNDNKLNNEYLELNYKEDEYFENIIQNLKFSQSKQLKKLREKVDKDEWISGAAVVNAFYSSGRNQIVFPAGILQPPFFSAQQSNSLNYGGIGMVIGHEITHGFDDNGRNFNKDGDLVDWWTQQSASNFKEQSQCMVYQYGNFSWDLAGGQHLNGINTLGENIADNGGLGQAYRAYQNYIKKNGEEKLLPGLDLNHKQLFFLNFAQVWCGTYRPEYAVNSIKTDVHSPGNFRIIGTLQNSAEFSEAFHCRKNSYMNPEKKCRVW

binding result (CD10 [1]): binds
B1: mouse anti-CD10 antibody NL-1 (antibody, V domains shown)
VH: DVQLVESGGGLVQPGGSRKLSCAASGFTFSSFGMHWVRQAPEKGLEWVAYISGGSYTIYYADTVKGRFTISRDNPKNTLFLQMTSLRSEDTAMYYCASSYGNFWYFDVWGAGTTVTVSS
VL: EIVLTQSPALMAASPGEKVTIACSVSSSISSSNLHWYQQKSETSPKPWIYGTSNLASGVPVRFSGSGSGTSYFLTISSMEAEDAATYYCQQWSSYPLTFGGGTKLEIK
notes: Mouse hybridoma antibody; H chain cloned with a mouse Cgamma2a probe and L chain with a Ckappa probe; also called anti-CD10 mouse antibody NL-1

binding result (CD10 [2]): binds
B2: anti-CD10 humanized antibody HV0LV9 MS705 (antibody, V domains shown)
VH: EVQLVESGGGVVQPGRSLRLSCAASGFTFSSFGMHWVRQAPGKGLEWVAYISGGSYTIYYADTVKGRFTISRDNSKNTLYLQMNSLRAEDTAVYYCARSYGNFWYFDVWGQGTTVTVSS
VL: DIVMTQSPDSLAVSLGERATIACSVSSSISSSNLHWYQQKPGQSPKPWIYGTSNLASGVPVRFSGSGSGTSYFLTISSLQAEDVATYYCQQWSSYPLTFGQGTKVEIKR
notes: also called HV0LV9 MS705 antibody; FERM BP-10099

binding result (CD10 [2]): binds
B3: anti-CD10 humanized antibody HV2LV9 MS705 (antibody, V domains shown)
VH: B2 VH with G42E, R98S
VL: B2 VL
notes: also called HV2LV9 MS705 antibody

binding result (CD10 [2]): binds
B4: anti-CD10 humanized antibody HV0LV0 MS705 (antibody, V domains shown)
VH: B2 VH
VL: B2 VL with A22N, S44P, P47L, W48L, V61D, S71D, Y72F, F73T, T86V
notes: also called HV0LV0 MS705 antibody
